The results in this text go back to paper PMC7514066, “ICOS agonism by JTX-2011 (vopratelimab) requires initial T cell priming and Fc cross-linking for optimal T cell activation and anti-tumor immunity in preclinical models” (PLoS ONE, 2020).

For orientation: Kd means the constant that tells how readily two partners part at equilibrium. High values mean weaker binding, low ones tighter binding.

The target in this assay is T1, hB7-1-Fc (human, UniProt P33681 35-242).
T1 construct: human B7-1 (CD80), recombinant Fc fusion; also called rhB7-1; source: bought: R&D Systems
T1 sequence (looked up): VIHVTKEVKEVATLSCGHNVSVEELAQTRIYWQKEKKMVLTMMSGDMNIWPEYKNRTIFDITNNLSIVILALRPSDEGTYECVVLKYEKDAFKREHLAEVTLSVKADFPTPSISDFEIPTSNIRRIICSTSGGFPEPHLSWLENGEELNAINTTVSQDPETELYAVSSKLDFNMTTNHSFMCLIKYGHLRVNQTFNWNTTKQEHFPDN
The experiment in a line: BLI; ForteBio Octet; tested 'in a similar way' to the ICOS antibodies (there: antibody loaded on biosensors at 10 ug/mL, Fc protein in solution, dissociation in kinetics buffer: PBS with 0.1% BSA, 0.05% sodium azide, 0.02% Tween-20; global 1:1 fit); which partner was loaded is not said for this experiment. To be noted: both partners purified.

B1: mCD28-Fc (Fc fusion, mouse, UniProt P31041 20-150, looked up)
chain: NKILVKQSPLLVVDSNEVSLSCRYSYNLLAKEFRASLYKGVNSDVEVCVGNGNFTYQPQFRSNAEFNCDGDFDNETVTFRLWNLHVNHTDIYFCKIEFMYPPPYLDNERSNGTIIHIKEKHLCHTQSSPKL
notes: mouse CD28, recombinant Fc fusion; source: bought: R&D Systems
In turn, B1 had a Kd of 14 nM.
